Test results from publication PMC7748003 (Plant Communications, 2019).

T1: GST-SMXL8 (Arabidopsis, UniProt F4IGZ2 1-910)
T1 sequence (looked up): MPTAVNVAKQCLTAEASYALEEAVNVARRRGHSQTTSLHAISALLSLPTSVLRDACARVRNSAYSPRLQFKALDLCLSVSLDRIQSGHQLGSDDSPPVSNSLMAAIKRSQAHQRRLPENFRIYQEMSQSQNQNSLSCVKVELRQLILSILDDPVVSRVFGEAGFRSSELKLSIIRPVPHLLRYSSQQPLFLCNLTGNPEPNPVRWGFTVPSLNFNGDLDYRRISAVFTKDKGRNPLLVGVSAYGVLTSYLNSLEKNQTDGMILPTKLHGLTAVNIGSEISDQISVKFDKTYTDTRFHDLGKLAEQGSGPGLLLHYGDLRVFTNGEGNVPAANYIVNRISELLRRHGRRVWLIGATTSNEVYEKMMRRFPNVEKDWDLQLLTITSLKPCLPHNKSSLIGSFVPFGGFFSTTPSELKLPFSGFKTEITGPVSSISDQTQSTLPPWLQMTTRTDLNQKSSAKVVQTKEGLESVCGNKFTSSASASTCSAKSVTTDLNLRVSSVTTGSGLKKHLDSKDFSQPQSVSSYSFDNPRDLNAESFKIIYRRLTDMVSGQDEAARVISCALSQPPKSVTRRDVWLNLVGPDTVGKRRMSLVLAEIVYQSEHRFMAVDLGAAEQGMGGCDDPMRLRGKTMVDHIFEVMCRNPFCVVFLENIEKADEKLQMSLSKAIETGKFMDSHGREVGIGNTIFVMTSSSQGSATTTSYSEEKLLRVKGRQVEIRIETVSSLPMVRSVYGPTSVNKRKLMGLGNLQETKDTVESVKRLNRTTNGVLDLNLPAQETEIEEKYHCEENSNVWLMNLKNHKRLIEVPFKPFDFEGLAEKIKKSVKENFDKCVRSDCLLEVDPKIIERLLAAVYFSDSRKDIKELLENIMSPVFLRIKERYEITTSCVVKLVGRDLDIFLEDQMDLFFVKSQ

T2: GST-SMXL7 (Arabidopsis, UniProt O80875 1-1002)
T2 sequence (looked up): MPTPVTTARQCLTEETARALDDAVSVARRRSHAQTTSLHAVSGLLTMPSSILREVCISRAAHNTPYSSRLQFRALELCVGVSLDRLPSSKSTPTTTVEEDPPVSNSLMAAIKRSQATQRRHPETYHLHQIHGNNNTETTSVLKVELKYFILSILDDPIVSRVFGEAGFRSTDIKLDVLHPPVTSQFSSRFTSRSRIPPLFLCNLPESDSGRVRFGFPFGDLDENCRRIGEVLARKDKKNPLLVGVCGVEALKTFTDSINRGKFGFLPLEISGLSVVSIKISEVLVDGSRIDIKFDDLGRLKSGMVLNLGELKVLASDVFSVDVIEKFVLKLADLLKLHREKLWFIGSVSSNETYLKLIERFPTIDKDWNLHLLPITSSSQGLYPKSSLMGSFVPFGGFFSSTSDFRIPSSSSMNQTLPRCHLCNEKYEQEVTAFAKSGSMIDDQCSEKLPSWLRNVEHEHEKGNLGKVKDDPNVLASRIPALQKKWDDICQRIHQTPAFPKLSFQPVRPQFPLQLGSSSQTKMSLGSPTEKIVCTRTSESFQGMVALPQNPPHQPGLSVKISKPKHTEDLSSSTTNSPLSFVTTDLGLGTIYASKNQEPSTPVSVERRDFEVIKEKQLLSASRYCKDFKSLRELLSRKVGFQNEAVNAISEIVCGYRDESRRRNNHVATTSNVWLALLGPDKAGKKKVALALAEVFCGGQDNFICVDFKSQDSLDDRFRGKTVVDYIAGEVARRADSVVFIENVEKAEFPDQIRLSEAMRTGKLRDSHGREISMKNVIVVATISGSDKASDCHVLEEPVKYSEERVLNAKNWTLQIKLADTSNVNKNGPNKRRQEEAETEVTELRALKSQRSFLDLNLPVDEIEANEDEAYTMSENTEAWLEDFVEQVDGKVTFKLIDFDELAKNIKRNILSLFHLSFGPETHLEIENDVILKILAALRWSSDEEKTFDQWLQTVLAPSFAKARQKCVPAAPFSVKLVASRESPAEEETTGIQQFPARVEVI

T3: GST-SMXL6 (Arabidopsis, UniProt Q9LML2 1-979)
T3 sequence (looked up): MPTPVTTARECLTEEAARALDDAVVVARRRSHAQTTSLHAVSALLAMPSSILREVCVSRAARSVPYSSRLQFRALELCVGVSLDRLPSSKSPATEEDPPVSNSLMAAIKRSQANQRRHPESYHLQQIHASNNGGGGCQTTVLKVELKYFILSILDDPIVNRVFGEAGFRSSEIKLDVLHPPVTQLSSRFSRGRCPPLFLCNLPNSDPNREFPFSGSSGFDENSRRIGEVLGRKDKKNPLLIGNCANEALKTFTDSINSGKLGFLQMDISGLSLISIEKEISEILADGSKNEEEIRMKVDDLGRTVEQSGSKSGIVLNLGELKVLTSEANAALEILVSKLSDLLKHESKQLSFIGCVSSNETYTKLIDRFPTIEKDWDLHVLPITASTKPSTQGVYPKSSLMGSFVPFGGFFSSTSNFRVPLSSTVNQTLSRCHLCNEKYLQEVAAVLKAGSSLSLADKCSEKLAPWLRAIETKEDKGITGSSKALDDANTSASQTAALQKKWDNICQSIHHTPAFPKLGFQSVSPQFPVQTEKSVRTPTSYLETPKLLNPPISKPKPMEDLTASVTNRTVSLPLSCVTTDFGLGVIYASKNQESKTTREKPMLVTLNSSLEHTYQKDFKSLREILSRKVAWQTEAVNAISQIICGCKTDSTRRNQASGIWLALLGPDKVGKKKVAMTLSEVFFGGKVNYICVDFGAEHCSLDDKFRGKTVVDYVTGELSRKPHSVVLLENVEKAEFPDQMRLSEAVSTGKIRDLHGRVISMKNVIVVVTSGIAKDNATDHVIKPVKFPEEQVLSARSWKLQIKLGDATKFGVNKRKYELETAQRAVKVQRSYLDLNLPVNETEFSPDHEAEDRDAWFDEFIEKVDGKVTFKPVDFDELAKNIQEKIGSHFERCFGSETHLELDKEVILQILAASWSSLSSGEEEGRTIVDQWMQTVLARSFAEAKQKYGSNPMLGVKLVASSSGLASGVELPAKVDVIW


Tests used:
GST-SMXL8 = molecular target: T1, GST-SMXL8; experiment: pull-down
GST-SMXL7 = molecular target: T2, GST-SMXL7; experiment: pull-down
GST-SMXL6 = molecular target: T3, GST-SMXL6; experiment: pull-down
BES1-MBP = BES1-MBP (Arabidopsis thaliana, UniProt Q9LN63 1-335); experiment: EMSA

| binding result (GST-SMXL8) | binding result (GST-SMXL7) | binding result (GST-SMXL6) | Binder | binding result (BES1-MBP) |
| --- | --- | --- | --- | --- |
| binds | binds | binds | MBP-BES1 (natural protein, Arabidopsis, UniProt Q9LN63 1-335, looked up) MTSDGATSTSAAAAAAAMATRRKPSWRERENNRRRERRRRAVAAKIYTGLRAQGNYNLPKHCDNNEVLKALCSEAGWVVEEDGTTYRKGHKPLPGDMAGSSSRATPYSSHNQSPLSSTFDSPILSYQVSPSSSSFPSPSRVGDPHNISTIFPFLRNGGIPSSLPPLRISNSAPVTPPVSSPTSRNPKPLPTWESFTKQSMSMAAKQSMTSLNYPFYAVSAPASPTHHRQFHAPATIPECDESDSSTVDSGHWISFQKFAQQQPFSASMVPTSPTFNLVKPAPQQLSPNTAAIQEIGQSSEFKFENSQVKPWEGERIHDVAMEDLELTLGNGKAHS |  |
|  |  |  | BRC1 promoter probe c (fragment F5) (dsDNA) DNA 1: AAGAAGATTATAGTACAAGTGTCATTCTCAAAATTTTGTC DNA 2: GACAAAATTTTGAGAATGACACTTGTACTATAATCTTCTT | binds |
|  |  |  | BRC1 promoter probe b (fragment F4) (dsDNA) DNA 1: AACATAAACAAACACAAGGTCCTAATTATAGAAAAAAATC DNA 2: GATTTTTTTCTATAATTAGGACCTTGTGTTTGTTTATGTT | binds |
|  |  |  | BRC1 promoter probe a (fragment F2) (dsDNA) DNA 1: GAACAAATGCAATATATCAATAGTTAGTGTACATATGAAG DNA 2: CTTCATATGTACACTAACTATTGATATATTGCATTTGTTC | binds |
